Experimental findings from publication doi:10.1101/2022.01.21.477187 are described below.

The assay has as its target GMPCPP-stabilised rhodamine microtubules. The assay can be described thus: single-molecule TIRF motility assay.

On to “CENP-E483 with a GCN4 leucine zipper domain fused to its C terminus (from UniProt Q02224 1-483)”, for which the residency time on the microtubule was 6.36 s.
“full-length human CENP-E-mNeonGreen, Q02224 1-2701” had a landing rate (events μm^−1 min^−1) of 0.147, a processive landing rate (events μm^−1 min^−1) of 0.009 and a residency time on the microtubule of 37.1 s.
